Laboratory results: patent publication US10967068B2, “Stability-modulating linkers for use with antibody drug conjugates” (priority 2014, dated 2021)
*1 amine or outer side, *2 acyl side, *3 side chain or, on linkers, in order; H or OH if unused. Where a SMILES comes first, the peptide text is derived from it. [ ]: non-standard residue; d: D form. The star is where a group is joined. Dolaproine = CO[C@@H]([C@@H]1CCCN1)[C@@H](C)C(=O)O; Dil = CC[C@H](C)[C@H](NC)[C@@H](CC(=O)O)OC; Benzenesulfonyl = O=S(=O)(c1ccccc1)*; PABC = O=C(OCc1ccc(N[*:1])cc1)[*:2]; Doe = c1ccc(C[C@H](N*)c2nccs2)cc1; Glyceroyl(2S) = O=C([C@@H](O)CO)*; Cit = NC(=O)NCCC[C@H](N)C(=O)O; Propanoyl(3-OH) = O=C(CCO)*; X1 = NCCOCCOCCOCCOCCOCC*; dLac = C[C@@H](O)C(=O)O; Lac = C[C@H](O)C(=O)O; Aib = CC(C)(N)C(=O)O; Ethyl(2-NH2) = NCC*; Ms = CS(=O)(=O)*; X3 = NCCOCC*

Test: In Vitro Stability Assay—Mouse Plasma
Assay type: in vitro ADME
Conditions: for DAR: before plasma incubation
[1] = attachment position L11B, % DAR remaining after plasma 3 or 4.5 days
[2] = Trop-2 antibody attachment position TG6, HIC or mass spectrometry
[3] = attachment position TG6, % DAR remaining after incubation in plasma for 3 or 4.5 days
[4] = attachment position TG6, plasma species not printed in table (values match mouse plasma, Table 4)

Method: 100-200 ug of ADC were incubated in mouse plasma (provided by Bioreclamation) supplemented with 1×PBS to the final ADC concentration of 0.125 mg/mL. Following incubation for 3-7 days, samples were diluted with an equal volume of 1×PBS, and ADCs were isolated using Trop2 antigen coupled to CNBr-activated Sepharose (GE Healthcare) using standard protocols. Drug-antibody ratios were assessed before and after in vitro exposure using HIC methods and mass spectrometry.
DAR values for conjugates purified after plasma incubation were compared to DAR values prior to plasma treatment.

In the case of `CC[C@H](C)[C@@H]([C@@H](CC(=O)N1CCC[C@H]1[C@H](OC)[C@@H](C)C(=O)N[C@@H](Cc1ccccc1)c1nccs1)OC)N(C)C(=O)[C@@H](NC(=O)C(C)(C)NC(=O)OCc1ccc(NC(=O)[C@H](CCCNC(N)=O)NC(=O)[C@@H](NC(=O)[C@H](CCCCN)NC(=O)[C@H](C)O)C(C)C)cc1)C(C)C` [Example 40, N˜2˜-[(2S)-2-hydroxypropanoyl]-L-lysylvalyl-N-{4-[(8S,11S,12R)-11-[(2S)-butan-2-yl]-12-(2-{(2S)-2-[(1R,2R)-1-methoxy-2-methyl-3-oxo-3-{[(1S)-2-phenyl-1-(1,3-thiazol-2-yl)ethyl]amino}propyl]pyrrolidin-1-yl}-2-oxoethyl)-5,5,10-trimethyl-3,6,9-trioxo-8-(propan-2-yl)-2,13-dioxa-4,7,10-triazatetradec-1-yl]phenyl}-N˜5˜-carbamoyl-L-ornithinamide] (H-[Lac]KV[Cit][PABC][Aib]V[Dil][Dolaproine]-Doe), the “DAR after plasma incubation for 3 to 4.5 days” value (from here on “DAR after plasma incubation”) (attachment position L11B) is reported as 1.08, the “Conjugate stability (%)” value [1] is reported as 58% and the DAR (attachment position L11B) is reported as 1.87.
For `CC[C@H](C)[C@@H]([C@@H](CC(=O)N1CCC[C@H]1[C@H](OC)[C@@H](C)C(=O)N[C@@H](Cc1ccccc1)c1nccs1)OC)N(C)C(=O)[C@@H](NC(=O)C(C)(C)NC(=O)OCc1ccc(NC(=O)[C@H](CCCNC(N)=O)NC(=O)[C@@H](NC(=O)[C@H](CCCCN)NC(=O)[C@@H](C)O)C(C)C)cc1)C(C)C` [Example 41, N˜2˜-[(2R)-2-hydroxypropanoyl]-L-lysylvalyl-N-{4-[(8S,11S,12R)-11-[(2S)-butan-2-yl]-12-(2-{(2S)-2-[(1R,2R)-1-methoxy-2-methyl-3-oxo-3-{[(1S)-2-phenyl-1-(1,3-thiazol-2-yl)ethyl]amino}propyl]pyrrolidin-1-yl}-2-oxoethyl)-5,5,10-trimethyl-3,6,9-trioxo-8-(propan-2-yl)-2,13-dioxa-4,7,10-triazatetradec-1-yl]phenyl}-N˜5˜-carbamoyl-L-ornithinamide] (H-[dLac]KV[Cit][PABC][Aib]V[Dil][Dolaproine]-Doe), the “DAR after plasma incubation” value (attachment position L11B) was 0.91, the “Conjugate stability (%)” value [1] was 49% and the DAR (attachment position L11B) was 1.86.
With `CC[C@H](C)[C@@H]([C@@H](CC(=O)N1CCC[C@H]1[C@H](OC)[C@@H](C)C(=O)N[C@@H](Cc1ccccc1)c1nccs1)OC)N(C)C(=O)[C@@H](NC(=O)C(C)(C)NC(=O)OCc1ccc(NC(=O)[C@H](CCCNC(N)=O)NC(=O)[C@@H](NC(=O)[C@H](CCCCN)NC(=O)[C@@H](O)CO)C(C)C)cc1)C(C)C` [Example 42, N˜2˜-[(2S)-2,3-dihydroxypropanoyl]-L-lysylvalyl-N-{4-[(8S,11S,12R)-11-[(2S)-butan-2-yl]-12-(2-{(2S)-2-[(1R,2R)-1-methoxy-2-methyl-3-oxo-3-{[(1S)-2-phenyl-1-(1,3-thiazol-2-yl)ethyl]amino}propyl]pyrrolidin-1-yl}-2-oxoethyl)-5,5,10-trimethyl-3,6,9-trioxo-8-(propan-2-yl)-2,13-dioxa-4,7,10-triazatetradec-1-yl]phenyl}-N˜5˜-carbamoyl-L-ornithinamide] ({Glyceroyl(2S)}-KV[Cit][PABC][Aib]V[Dil][Dolaproine]-Doe) the “DAR after plasma incubation” value (attachment position L11B) was 1.60, the “Conjugate stability (%)” value [1] was 85% and the DAR (attachment position L11B) was 1.87.
With `CC[C@H](C)[C@@H]([C@@H](CC(=O)N1CCC[C@H]1[C@H](OC)[C@@H](C)C(=O)N[C@@H](Cc1ccccc1)c1nccs1)OC)N(C)C(=O)[C@@H](NC(=O)C(C)(C)NC(=O)OCc1ccc(NC(=O)[C@H](CCCNC(N)=O)NC(=O)[C@@H](NC(=O)[C@H](CCCCN)NC(=O)CCO)C(C)C)cc1)C(C)C` [Example 43, N˜2˜-(3-hydroxypropanoyl)-L-lysylvalyl-N-{4-[(8S,11S,12R)-11-[(2S)-butan-2-yl]-12-(2-{(2S)-2-[(1R,2R)-1-methoxy-2-methyl-3-oxo-3-{[(1S)-2-phenyl-1-(1,3-thiazol-2-yl)ethyl]amino}propyl]pyrrolidin-1-yl}-2-oxoethyl)-5,5,10-trimethyl-3,6,9-trioxo-8-(propan-2-yl)-2,13-dioxa-4,7,10-triazatetradec-1-yl]phenyl}-N˜5˜-carbamoyl-L-ornithinamide] ({Propanoyl(3-OH)}-KV[Cit][PABC][Aib]V[Dil][Dolaproine]-Doe) the “DAR after plasma incubation” value (attachment position L11B) was 1.23, the “Conjugate stability (%)” value [1] was 76% and the DAR (attachment position L11B) was 1.62.
For `CC[C@H](C)[C@@H]([C@@H](CC(=O)N1CCC[C@H]1[C@H](OC)[C@@H](C)C(=O)N[C@@H](Cc1ccccc1)c1nccs1)OC)N(C)C(=O)[C@@H](NC(=O)C(C)(C)NC(=O)OCc1ccc(NC(=O)[C@H](CCCNC(N)=O)NC(=O)[C@@H](NC(=O)[C@H](CCCCN)NS(C)(=O)=O)C(C)C)cc1)C(C)C` [Example 44, N˜2˜-(methylsulfonyl)lysyl-L-valyl-N-{4-[(8S,11S,12R)-11-[(2S)-butan-2-yl]-12-(2-{(2S)-2-[(1R,2R)-1-methoxy-2-methyl-3-oxo-3-{[(1S)-2-phenyl-1-(1,3-thiazol-2-yl)ethyl]amino}propyl]pyrrolidin-1-yl}-2-oxoethyl)-5,5,10-trimethyl-3,6,9-trioxo-8-(propan-2-yl)-2,13-dioxa-4,7,10-triazatetradec-1-yl]phenyl}-N˜5˜-carbamoylornithinamide] (Ms-KV[Cit][PABC][Aib]V[Dil][Dolaproine]-Doe), the DAR [2] was 1.74, the “DAR after plasma incubation” value (attachment position L11B) was 0.25 and the “Conjugate stability (%)” value [1] was 17%. For the same compound, the DAR (attachment position L11B) was 1.50, the “Conjugate stability (%)” value [3] was 47% and the “DAR after plasma incubation” value [4] was 0.82.
With `CC[C@H](C)[C@@H]([C@@H](CC(=O)N1CCC[C@H]1[C@H](OC)[C@@H](C)C(=O)N[C@@H](Cc1ccccc1)c1nccs1)OC)N(C)C(=O)[C@@H](NC(=O)C(C)(C)NC(=O)OCc1ccc(NC(=O)[C@H](CCCNC(N)=O)NC(=O)[C@@H](NC(=O)[C@H](CCCCN)NS(=O)(=O)c2ccccc2)C(C)C)cc1)C(C)C` [Example 45, N˜2˜-(phenylsulfonyl)lysyl-L-valyl-N-{4-[(8S,11S,12R)-11-[(2S)-butan-2-yl]-12-(2-{(2S)-2-[(1R,2R)-1-methoxy-2-methyl-3-oxo-3-{[(1S)-2-phenyl-1-(1,3-thiazol-2-yl)ethyl]amino}propyl]pyrrolidin-1-yl}-2-oxoethyl)-5,5,10-trimethyl-3,6,9-trioxo-8-(propan-2-yl)-2,13-dioxa-4,7,10-triazatetradec-1-yl]phenyl}-N˜5˜-carbamoylornithinamide] (Benzenesulfonyl-KV[Cit][PABC][Aib]V[Dil][Dolaproine]-Doe) the DAR [2] was 1.42, the “DAR after plasma incubation” value (attachment position L11B) was 0 and the “Conjugate stability (%)” value [1] was 0%. The DAR (attachment position L11B) was 0.66, the “Conjugate stability (%)” value [3] was 3% and the “DAR after plasma incubation” value [4] was 0.04.
In the case of `CC[C@H](C)[C@@H]([C@@H](CC(=O)N1CCC[C@H]1[C@H](OC)[C@@H](C)C(=O)N[C@@H](Cc1ccccc1)c1nccs1)OC)N(C)C(=O)[C@@H](NC(=O)C(C)(C)NC(=O)OCc1ccc(NC(=O)[C@H](CCCNC(N)=O)NC(=O)[C@@H](NC(=O)[C@@H](COCCN)NC(C)=O)C(C)C)cc1)C(C)C` [Example 46, N-acetyl-O-(2-aminoethyl)-D-seryl-L-valyl-N-{4-[(8S,11S,12R)-11-[(2S)-butan-2-yl]-12-(2-{(2S)-2-[(1R,2R)-1-methoxy-2-methyl-3-oxo-3-{[(1S)-2-phenyl-1-(1,3-thiazol-2-yl)ethyl]amino}propyl]pyrrolidin-1-yl}-2-oxoethyl)-5,5,10-trimethyl-3,6,9-trioxo-8-(propan-2-yl)-2,13-dioxa-4,7,10-triazatetradec-1-yl]phenyl}-N˜5˜-carbamoylornithinamide] (Ac-[dS](Ethyl(2-NH2))V[Cit][PABC][Aib]V[Dil][Dolaproine]-Doe), the “DAR after plasma incubation” value (attachment position L11B) is reported as 0.69, the “Conjugate stability (%)” value [1] is reported as 51% and the DAR (attachment position L11B) is reported as 1.36.
In the case of `CC[C@H](C)[C@@H]([C@@H](CC(=O)N1CCC[C@H]1[C@H](OC)[C@@H](C)C(=O)N[C@@H](Cc1ccccc1)c1nccs1)OC)N(C)C(=O)[C@@H](NC(=O)C(C)(C)NC(=O)OCc1ccc(NC(=O)[C@H](CCCNC(N)=O)NC(=O)[C@@H](NC(=O)[C@H](COCCOCCN)NC(C)=O)C(C)C)cc1)C(C)C` [Example 47, N-acetyl-O-[2-(2-aminoethoxy)ethyl]-L-seryl-L-valyl-N-{4-[(8S,11S,12R)-11-[(2S)-butan-2-yl]-12-(2-{(2S)-2-[(1R,2R)-1-methoxy-2-methyl-3-oxo-3-{[(1S)-2-phenyl-1-(1,3-thiazol-2-yl)ethyl]amino}propyl]pyrrolidin-1-yl}-2-oxoethyl)-5,5,10-trimethyl-3,6,9-trioxo-8-(propan-2-yl)-2,13-dioxa-4,7,10-triazatetradec-1-yl]phenyl}-N˜5˜-carbamoylornithinamide] (Ac-S(X3)V[Cit][PABC][Aib]V[Dil][Dolaproine]-Doe), the “DAR after plasma incubation” value (attachment position L11B) is reported as 0.40, the “Conjugate stability (%)” value [1] is reported as 20% and the DAR (attachment position L11B) is reported as 1.96.
With `CC[C@H](C)[C@@H]([C@@H](CC(=O)N1CCC[C@H]1[C@H](OC)[C@@H](C)C(=O)N[C@@H](Cc1ccccc1)c1nccs1)OC)N(C)C(=O)[C@@H](NC(=O)C(C)(C)NC(=O)OCc1ccc(NC(=O)[C@H](CCCNC(N)=O)NC(=O)[C@@H](NC(=O)[C@H](COCCOCCOCCOCCOCCOCCN)NC(C)=O)C(C)C)cc1)C(C)C` [Example 48, N-acetyl-O-(17-amino-3,6,9,12,15-pentaoxaheptadec-1-yl)-L-seryl-L-valyl-N-{4-[(8S,11S,12R)-11-[(2S)-butan-2-yl]-12-(2-{(2S)-2-[(1R,2R)-1-methoxy-2-methyl-3-oxo-3-{[(1S)-2-phenyl-1-(1,3-thiazol-2-yl)ethyl]amino}propyl]pyrrolidin-1-yl}-2-oxoethyl)-5,5,10-trimethyl-3,6,9-trioxo-8-(propan-2-yl)-2,13-dioxa-4,7,10-triazatetradec-1-yl]phenyl}-N˜5˜-carbamoylornithinamide] (Ac-S(X1)V[Cit][PABC][Aib]V[Dil][Dolaproine]-Doe) the “DAR after plasma incubation” value (attachment position L11B) was 0, the “Conjugate stability (%)” value [1] was 0% and the DAR (attachment position L11B) was 1.94.
Compound “AcLys-vc0101 [Example 11, reference compound]” has a DAR (attachment position H7C) of 1.90, a DAR (attachment position H8A) of 1.82 and a DAR (attachment position H10) of 1.62. For the same compound, the DAR (attachment position L11B) was 1.87 and the DAR (attachment position LCQ04) was 1.88.
“AcLys-vcMMAD [Example 9, reference compound]” showed a DAR [2] of 1.97.
